Measurements from the nanobody polyreactivity screen of Harvey et al. (2022).

Assay: yeast display, Sf9 membrane polyspecificity reagent, FACS + sequencing; frameworks hold sequencing errors
Outline: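 Galactose-induced (36–48 hours) yeast carrying a synthetic nanobody display library were exposed to 10% biotinylated, detergent-solubilized Sf9 membrane reagent at 4 °C for 1 hour. FACS followed streptavidin microbead enrichment, using low and high (top ~1%) gates for expression (anti-HA) and reagent binding (streptavidin). Colony PCR, MiSeq 2 × 250 sequencing and CDR-length filtering followed. Labels for polyreactivity reflect the gate of origin.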

Row | Sequence | polyreactivity (PSR sort gate)
1 | QVQLVESGGGLGQAGGSLRLSCAASGSIFHPYAMGWYRQAPGKERELVASITSSGGSTYYADSVKGRFTISRDTAKNTVYLQMNSMKPEDTAVYYCNAQFLVYFYWYSTTAYIMYYWGQGTQVTVSS | low polyreactivity
2 | QVQLVDSGGGLVQAGGSLRLSCAASGSIFNRYVMGWYRQAPGKERELVAAISRRGGNTYYADSVKGRFTISRDNAKNTVYLQMNSLKPEDTAVYYCAAAYRSYKQFYSYGYEYWGQGTQVTVSS | high polyreactivity
3 | QVQLVESGGGLVQAGGSLRLSCAASGNIFAWSAMGWYRQAPGKERELVARITVGSTYYADSVKGRFTISRDNAKNTVYLQMNSLKPEDTAVYYCNKDSGEDDRWPYDYWGQGTQVTVSS | low polyreactivity
4 | QFQLEESGVGLVQAGGSLRLSCAASGFTFNVYAMGWYRQAPGKERELVAAIRWGAGSTYYADSVKGRFTISRDNAKNTVYLQMNSLKPEDTAVYYCAKDSGVWRYDHWGQGTQVTVSS | low polyreactivity
5 | QVQLVESGGGLVQAGGSLRLSCAASGSTFWPYAMGWYRQAPGKERELVAAITSSGGSTYYADSVKGRFTISRDNAKNTVYLQMNSLKPEETAVYYCAADWSNLGAYDYWGQGTQVTVSS | low polyreactivity
6 | QVQLVESGGGLVQAGGSLRLSCAASGSTFGRNAMGWYRQAPGKERELVAAISKTGGSTYYADSVKGRFTISRDTAKNTVYLQMNSLKPEDTAVYYCAARIRGFRTYYYWGQGTQVTVSS | high polyreactivity
7 | QVQLVESGGGLVQAGGSLRLSCAASGRIFGYYAMGWYIQAHGKERELVAAINSGSRTYYADSVKGRFTISRDNAKNTVYLQMNSLKPEDTAVYYCAARVRYPPYRSSDGQRGGYWGQGTQVTVSS | high polyreactivity
8 | QVQLVESGGGLVQAGGSLRLSCAASGRTFVPYAMGRYRQAPGKERELVAAISSSGGSTYYADSVKGRFTISRDNAKNTVYLQMNSLKPEDTAVYFCAAKSRKGGDYWGQGTQVTVSS | high polyreactivity
9 | QVQLVESGGGLVQAGGSLRLSCAASGITFPRYAMGWYRQAPGKERELVARISWGGGRTYYADSVKGRFTISRDNAKNTVYLPMNSLKPEDTAVYYSAARTWADPYGYWGQGTQVTVSS | high polyreactivity
10 | QVQLVESGGRLVQAGGSLSISCAASGSTFTSYSMGWYRQAPGKERELVAAIRRIGGDTYYADSVKGRFTISRDNAKNTVYLQMNSLKPEDTAVNYCAAVRWRSEPYWYHAMEHWGQGTQVTVSS | low polyreactivity
11 | QVQLVESGGGLVQAGGSLRLSCASSGSILWLNAMGWYRQAPGKERDLVAAITSRGGSTYYADSVKGRYTITRDNANNTVYLQMNSLKPEDTAVYYCATRSSRGSGSRFDYWGQGTQVTVSS | high polyreactivity
12 | QVQLVESGGGLVQAGGSLRLSCAASGSIFSPYAMGWYRQAPGKERELVDAISFRASTTYYADSVKGRFTISRDNAKNTVYLQMNSLKPEDTAVYYCAASPLYSWFWGLYDYWGQGTQVTVSS | low polyreactivity
13 | QVQLVESGGGLVQAGGSLRLSCASSGFIFHHYGMGRSRQAPGKERELVAGDTHYADSVKGRFTISRDNAKNTVYLQMNSLKPEDTAVYYCNAYWKDDFEDGPGRRGMDYWGQGTLVTVSS | low polyreactivity
14 | QVQLVESGGGLVQAGGSLRLSCAASGFTFEKYVMGWYIQAPGKETEFVAAITRSGGRTYYADSVKGRFTISRDNAKNTVYLQMNSLKPEDTAVYSCNAVTSWAGSLDYWGQGTQVTVSS | high polyreactivity
15 | QVQLVESGGGLVQEGGSLRLSCAASGSTFTYYAMGWYRQAPGKERELVAAISRSGGNTYYADSVKGRFTISRDNAKNTVYLQMNSLKPEDTAVYYCAAYRQVYGFDYWGQGTQVTVSS | high polyreactivity
16 | QVQLVESGGGLVQAGGSLRLSCAASGRTFYLYTMGWYRQAPGKERELVAAISRGGRTYADSVKGRFTISRDNAKNTVYLQMNSLKPEDTAVYYCAAESVYQGWSYQHGKGDYWGQGTQVTVSS | low polyreactivity
17 | KVQLVESVGGLVQAGGSLRLSCAASGSIFRGNAIGWYRQAPGKERQLVAAISNSSGTTYYADSVKGRFTISRDNAKNTVYLQMNSLKPEDTAVYYCATRYYRGYVRGTHHVGGYYYRGQGTQVTVSS | low polyreactivity
18 | QVQLVESGGGLVQAGGSLRLSCAASGGIFSTNGMGWYRQAPGKERELVATISYGGGSTSYADSVKGRFTISRDNAKNTVYLHMNSLKPEDTAVYYCAADSFGYNSWYNYDYWGQGSQVTVSS | low polyreactivity
19 | QVQHVESGGGLVQAGRSLRLSCAASGFIFRYSAMGWYRPAPGKERELVATITGRGGSTYYADSVKGRFTISRDNAKNTVYLQMNSLIPEDTAVYYCAARARYSPAPYDYWGQGTQVTVSS | high polyreactivity
20 | QVQLGESGGGLVQAVGSLRLSCAASGITFVYYAMGWSRQEPGKERELVSSISSADNTNYADSVKGRFTISRDNAKNTVYLQMNSLKPEDTAVYYCAADYWWHLRHYSTGGYWGQGTQVTVSS | low polyreactivity
21 | QVQLVESGGGLVQAGGSLRLSCAASGRTFYYYAMGWYRQAHGKERELVAAISTNGGSTYYADSVKGRFTISRDNAKNTVYLQMNSLKPEDTAVYYCNTYAKPHRSGGGLGGHYYWGQGTQVTLSS | low polyreactivity
22 | QVQLVESGGGLGQAGGSLRLSCAASGNTFWAYAMGWYRQAPGKERELVAGISSRGSRTYFADSVKGRFTISRDNAKNTVYLQMNSLKPEDSAVDFCNALRTPPGYYPPFDYWGEGTQVTVSS | high polyreactivity

Row | Sequence | polyreactivity (PSR sort gate)
23 | QVHLVESGGGLVQAGGSLRLSCAASGSTFYYTAMGWYRQPPGKESELVAAISRGGGSTYYADSVKGRFTISRDNAKNTVYVQMNSLKPEDTAVYYCAARRVGGGFYTWRNPAYEYWGQGTQVTVSS | high polyreactivity
24 | QVQREESVGGLVQAGVSLRLSCAASGLTLAPYAMGAYRQAPGKERELVAAITFSGGSTYYADSVKGRFTISRDNAKNTVYLQMNSLKPEDTAVYYCARDTWAYKYVYPYYSWGQGTQVTVSS | low polyreactivity
25 | QVQLVESGGGLDQAGGSLRLSCAASGRIFYQNAMGWYRQAPGKERELVAAITSSGVSTYYADSVKGRFTISRDYAKNTVYLQMNSLKPEDTAVYYCAAYRVGYGGYSYYYWGQGTQVTVSS | high polyreactivity
26 | QVQLVVSGGGLVQAGGSLRLSCAASGSTLVIYAMGGYRQAPGKERELVAAIRRTGGSTYYADSVKGRFTISRDNAKTTVDLQKNSLKPEDTAVYYCAKRSYTGYEYWGQGTQETVSS | low polyreactivity
27 | QVQLVESGGGLVQAGGSLRLSCAASGFTFALYAMGWYRQAPGKERELVAAITKGGGSTYYADSVKGRFTISRDNAKITVYLQMNSLKPEDTAVYYCAARGRYSAPDYGYWGQGTQVTVSS | high polyreactivity
28 | QVQLVESGGGLVQAGGSLRLSCAASGRIFAPYAMGWYRQAPGKERELVAAITRGGITNYADSVKGRFTISRDNAKNTVYLQMNSLKPEDSAVYYCETVVNRRGFYQYFYWGQGTQVTVSS | high polyreactivity
29 | QVQLEESGGGLVQAGGSLRLSCAASGSILDLNAMGWSRQATGKERELVAAISYSGDSTYYADSVKGRFTISRDNAKNTVYLQMNSQKPEDTAVYYCAAEVYGAVYDYWGQGTQVTVSS | low polyreactivity
30 | QVQLVESGGGLVQAGGSLRLSCAASGRIFNLYAMGWYRQAPGKERELVAGIRWSTGSTYYADSVKGRFTISRDNAKNTVYLQMNSLKPEDTAVDYCAVRYYCSGRYYYTYYSWGQGTLVTVSS | high polyreactivity
31 | QVHLVESGGGFVQAGGSLRLSCAASGSIFWLYAMGWYRHAPGKERELVAAISWSTGGTYYADSVKGRFTISRDNAKNTVYLQMNSLKPEDTAVYYCNADTYDQYNYWGQGTQVTVSS | low polyreactivity
32 | QVQLVESGGGLVQAGGSLRLSCAASGFIFHLYGMGWYRQAPGKERELVAAISSGGRTYYADSVKGRFTISRDNAKNTVYLQMNSLKPEDTAVYYCAVYVAYLYSYYYWGQGTQVTVSS | low polyreactivity
33 | QVQLVESGGGLVQAGGSLRLSCAASGRIFKSNAMGWYRQAPGKEWELVASISRSGSTNYADSVKGRFTISRDNAKNTVYLQMNSLKPEDTAVYYCAKDPDAKGGGYDYWGQGTQVTVSS | low polyreactivity
34 | QVQLVESGGGLVQAGGSLRLSCAASGFTFGGYAMGWYRQAPGKERELVAAIRSSGDTTYYADSVKGRFTISRDNAKNTVYLQMNSLKPEDTAVYYCAAYSHHQFSRSEYYYWGQGTQVTVSS | low polyreactivity
35 | QVQLVESGGGLVQAGGTLRLSCAASGSTFSVNAMGWYRQAPGKERELVASITTSGGSTNYADSVKGRFTISRDNAKNTVYLQMNSLKPEDTAVYYCNDDTPGSSPSDYNYWGQGTQVTVSS | low polyreactivity
36 | QVQLVESGGGLVQAGGSLRLSCAASGITSPSYAMGWYRQAPGKERELVAAISTSGGDTYYADSVKGRFTISRDKAKNTVYLQMNSLKPEDTAVYYCAAPVPAYQYYYRLKSFGRRYDHWGQGTQVTVSS | low polyreactivity
37 | QVQLVESGGGLVQAGGSLRLSCAASGSTFGGNAMGWYRQAPGKERELVAAISSTGGSTYYADSVKGRFTISRDNAKNTVYLQMNSLKPEDTAVYYCAALYHWTYDYWGQGTQVTVSS | low polyreactivity
38 | QVQLVESGGGLVQAGGSLRLSCAASGSTFWGYAMAWYRQAPGKERELVATINQSAGSTYYADSVKGRFTISRDNAKNTVYLQMNSLKPEDTAVYYCAAEARVQFSYDYWGQGTQVTVSS | low polyreactivity
39 | QVQLVESGGGLVQAGGSLRLSCAASGRNFPYYAMGWYRQAPGKEMELVAAITRGVRTHYADSVKGRFTISRDNAKNTVYLQMNSLKPEDTAVYYCAREDWGSYSDMDSWGQGTQVTVSS | low polyreactivity
40 | QVQLVESGGGLVQAGGSLRLSCAASGFTFYSYAMGWYRQAPGKERELVAAITDRGGSTYYADSVKGRFTISRDNAKNTVYLQMNSLKPEDTAVYYCAAASGIRSYSYGWLGREYYWGQGTQVTVSS | high polyreactivity
41 | QVQLVESGGGLVQAGGSLRLSCAASGIILPRYAMGWYRQAPGKERELVAAISRGGGTYYADSVKGRFTISRDNAKNTVYLQMNSLIPEDTAVYYCAAAYVFVGSSHYYWGQGTQVTVSS | high polyreactivity
42 | QVQLVESGGGLVQAGGSLRLSCAASGFIFPNKAMGWYRQAPGKERELVARISYGGGDTHYADSVKGRFTISRDNAKNTVYLQMNSLKPEDTAVYYCSYYYWGQGTQVTVSS | low polyreactivity
43 | QVQLVESGGGLVQAGGSLRLSCAASGGIFSSYAMGWYRPAPGKERELVAAISSSSGSTYYADSVKGRFTISRDNAKNTVYLQMNSLKPEDTGVYYCAADSGHPDWYYYCGQGTQVTVSS | high polyreactivity
